In the supplement of paper PMC12636428:

System: Saccharomyces cerevisiae
Experiment: transcriptional activation domain activity (GFP:mCherry ratio, weighted mean of sorted bins, harmonized to initial dataset scale) (arbitrary fluorescence ratio units); higher = stronger transcriptional activation
Settings: beta-estradiol 1 µM; induction time 4 h
Procedure: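 53-aa protein tiles (fungal proteins plus yeast TF control tiles) fused C-terminally to a DBD-estrogen-binding domain-mCherry synthetic TF, integrated in S. cerevisiae (URA3 locus) with a GFP reporter. Cells were induced with 1 uM beta-estradiol for 4 h at 30 C, FACS-sorted into 8 bins by GFP:mCherry ratio and barcodes sequenced. Activity is the read-weighted mean bin fluorescence (GFP:mCherry), averaged over barcodes (median 12); tiles under 50 reads were discarded. New active-learning values were harmonized by linear fit onto the scale of the initial (Hummel et al.) dataset. The assay saturates at low and high signal.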

Going from “AFSFALFDFDTLAGTFPFDSLGYSDDISTLTDPLIPMNYDPTPFSWTPRTTLA” to “AFVLFLIYLTFFCWLCFATSASWVWSEILSDGQYNESFMPVNYVLLAVLSGII”, the “transcriptional activation domain activity” value falls from 54300 to 53800.

Compared with “AFVLFLVYLTLFCWVCFATSSSWVYSEILNEGQYTESFMPVNYVLLAVLSGII”, “AFVNFIYVEDLLNFARTKLGVKWYFSHNLCIYVITHLLHRNMFSSEKVLQMSY” is higher in “transcriptional activation domain activity” value: 64600 for the first, 83400 for the second.

Going from “AGAAAASTAAEADGEKDGEEGETKPAAPAKKPRKARAKKQVKSEEKAVEEATG” to “AGAKQLAYPQKLALIQYSDHISLNILVGKGWQELNAELVCLFVILARNIFVML”, the “transcriptional activation domain activity” value rises from 19300 to 45600.

Compared with “AGALLDLYLRRNRCYVSNGYLGCSVLYLSTSLVVSCFLSWVTATILIILDIKR”, “AGAPVFGLPPFRWWRFNVFWMFWCFFWNLQGVINLVTLDINGYLSIFIPFITI” is lower in “transcriptional activation domain activity” value: 83600 for the first, 58700 for the second.

Going from “AGDAFGAVESVKSASDIMSPVSGEVVEANVALKDKPALINRSPEEEGWIVRVR” to “AGDKPEKSKKDKKKEKEEKKKAAVAAEKEKQEKGDEAVAAAPSPVAAATPSLL”, the “transcriptional activation domain activity” value falls from 52900 to 29900.

First: AGDMGIERTGVDLHNGKHPLNALLKAIVGKLHLPLYFHWGPLNIGSCFSIPYA
Second: AGDTSDGESASTPAHSSHQSRKQQVRHRASVACASCRERRIRCVVPEGASECT
The “transcriptional activation domain activity” value of the first is higher: 50300 for the first, 27400 for the second.

First: AGEAPIAEGQQAQEARPAAEGAGAGTENQPGRAEGEAAKAEAQAEQQQQQGQA
Second: AGEKADAPNGEGAGEGNRRRPSGRGRGRGRGGRGARNGRDGAQEEGAEAAAAP
The “transcriptional activation domain activity” value of the first is lower: 10300 for the first, 14300 for the second.

Going from “AGGAFETGGKRRKGKEKVRLDYNAIAGGQVALVKDDLELLIVHLLISRYLGEA” to “AGGEAAAGGEAAAGEGAAAGGEAKAGEKAAGEGAKAGEEAAGEAKVEAAKPAA”, the “transcriptional activation domain activity” value falls from 19000 to 18400.

First: AGGGNHPPPPPPPPPPAGRSGGAPPPPPPPPPPPPGAGGGNHPPPPPPPPPPP
Second: AGGGRKAKATQTGAGASRQKTKTGFQTGRSRRAGNAKTKTNRRAINKPRNGDS
The “transcriptional activation domain activity” value of the first is lower: 23500 for the first, 28900 for the second.

Compared with “AGIRLLERAWYWLHGRYRFTAGYVAELLLNGFKRPHGLLNAYVHHFTNFNITD”, “AGKKTVTSEEAEVKVEVEAEVGVEVDIEPAAAKKPAKKTKAKVKTIAEEEVKV” is lower in “transcriptional activation domain activity” value: 72000 for the first, 31900 for the second.

First: AGLIVLSGRFNGVVRCLREGFRLRTNIDKCMIFYISCKIALISLFTLLLLVEG
Second: AGLTLPRTSDYSLFYYFLLWFTLFGLAMLFIIIHGIDYVSWPRLIPLTDIIYY
The “transcriptional activation domain activity” value of the first is higher: 46100 for the first, 17600 for the second.

First: AGNATAGTGTGKGKGKGKGKGKGKGKKAGKNAGKNAGKNAGKNSTAAAGGQQK
Second: AGNGWLLVGWFILHHFVVVSGILVAMLCLSFWDLWGSPGSPLLSRPWVAACFA
The “transcriptional activation domain activity” value of the first is lower: 20100 for the first, 50500 for the second.

First: AGPARTGSSSSSSSSDEDKKKKKDKAEEKVEEKKEKPEEKAEDKKEASTAVAA
Second: AGQILANQVIITNLTNFIYSITPLPVRYYYLLEMLKFIFFLFMLGMLPLALCA
The “transcriptional activation domain activity” value of the first is lower: 23300 for the first, 52400 for the second.

Compared with “AGQLGYDPVFGICWYNNSDPAMKLRWMLGSQLFWLLFMSTSEVVFFLVLVCFM”, “AGQVVQETVHRAGDALKETAESAAQHVFSPRRRRRRRRSSRTGSERAVVCCSR” is higher in “transcriptional activation domain activity” value: 43500 for the first, 62000 for the second.

Going from “AGRGGERRRRGLRRGRGRGAGAAARGRDGVRDDGERVAARVRVRVCARVCVCV” to “AGRWQYATLFFSGVSGGATLALSLCVITHPSLLTRIVVICIFVTLISAFTILP”, the “transcriptional activation domain activity” value falls from 42600 to 27900.

Compared with “AGSGGEGADGNETRRRSSGRGRGRGRGRGGRASRGGRGGKSEGAEGFTEKAEG”, “AGSSTFRDKGKGRASDAGPVSRTGDNEGGEESAGEGNQREKKRVKKEVKKAPR” is higher in “transcriptional activation domain activity” value: 15900 for the first, 20300 for the second.

Compared with “AGTVPLMIYSTRLARESIGAWRLACLTLFIVTQIRGSVVLLAKSKLWTHILSC”, “AHACIVLVVCEIDKTLGHSKHLLMIWLMRLLLLILNIMTIVGLFWSFLKCLDV” is lower in “transcriptional activation domain activity” value: 74600 for the first, 70900 for the second.

Compared with “AHQRTTGASAEEKLALEVVLIMRNDLITHVIVYVLRSFLVYNAPLTGPLAEKL”, “AHSKKKTCDVCKYPYSFTKVYAQDMPARLPVFLLLRRLAQQGALAMLFAIRAV” is higher in “transcriptional activation domain activity” value: 55000 for the first, 73300 for the second.

Going from “AHVGVGISGVEGLQAARSADIAISQFRYLKKLLLVHGAWSYRRLSKLILYSFY” to “AHVTMPYLLAIACHTAGIICMWICYCACLVWCSTVLPILLIIIIILIVFLNAN”, the “transcriptional activation domain activity” value falls from 82600 to 25200.

Going from “AHYLNHNPHQPSMGFDQALGLKLSPSSSGLLSTNESNAIEQFLDNLISQDMMS” to “AIAEYKWVHLKKGAELTLIDVYDGCTRGLSGFSLTIRAMHFDFVLLVAFLFHL”, the “transcriptional activation domain activity” value falls from 110000 to 50400.

Going from “AIATPVCAAGDFPGNLLLHHSITIPFIYVTLSFFYIFALFLFFLLSIFLVAWL” to “AIEEIRQDNESRQRENRVVYDRTDKDNERNESLNHQQGIRLVIIDSIHQPVTT”, the “transcriptional activation domain activity” value falls from 50300 to 45700.

Going from “AIENGGASDGEPKKRVRKRGGRKNKARRDSAAAAAAAAAAAAAGGQSSAALAP” to “AIEQFLDNLISQDMMSSNASMNSESHLHIRSPKKQHRYTELNQRYPETHPHSN”, the “transcriptional activation domain activity” value rises from less than 6570 to 8240.

Compared with “AIFMSDGSQALCRLIYLIGIATRFFGLSMMLCIVVDVLNLVTFYLNVFYLIQW”, “AIGISGYVLPCLYRLALLVLNTTPNQPLDALLSFSHYTLQNSALAHFLPLFVN” is higher in “transcriptional activation domain activity” value: 47500 for the first, 53400 for the second.

Compared with “AIHRQLVESILGTTLRCTADISALDVSIADTLWYLLDGTARMVIQFFAVVLFA”, “AILDLAFYIRWQNNNYHLAPSIPLSKMYSNSLLVVLNARIKIVGGRNEYKTNS” is lower in “transcriptional activation domain activity” value: 62700 for the first, 31900 for the second.

Going from “AILIRSIFRVAEFAGGCVVSFSLWMCHKTTCIFLRFDTLPLWLAMSLYCVVWP” to “AILKCIACHNGAMDSVRLLSVLTVPSGPALAHVHLCLLRYLKNRVISEQFGPS”, the “transcriptional activation domain activity” value falls from 49700 to 21100.

First: AILLFIELASMGGFTWHLLSGLFFGDVCLIYMDLDDTLFFLFVLVALFSQSFV
Second: AILLGEAYGYRILPFVPVWTIFATVNLAYAVCSTSWLLYWVYLVCCWPTLLIV
The “transcriptional activation domain activity” value of the first is lower: 46700 for the first, 55500 for the second.

Compared with “AILLLSAYVLFLVVWLIFFSRVILLIPFFPGTPYNLAMPVVLLGLFYCFVFTW”, “AIMIMCLLLFENEFLNIVAISFTALVLNELIMVALEITTWHIYMILAEIVTLF” is higher in “transcriptional activation domain activity” value: 32700 for the first, 55800 for the second.

Going from “AINFWFFLTVYYGFYNLVGLLWITKIFNMYSLNWWPPQLGFPPTFTFFSCFPL” to “AINTAKAEIDGVREIMTENIERVLERGEHMSVLVDKTGRLGENARDFRVRSRT”, the “transcriptional activation domain activity” value falls from 51500 to 29100.

Going from “AINVSFLHWIYIFHATGKHKYASQLARYLKNLHEVHPPELSQWLIEVFRKCHI” to “AINYASMCKQYERAEYTQRLMIELDPVLRHSWSRRLATWRLTETWTHYLVLNI”, the “transcriptional activation domain activity” value rises from 61400 to 68900.

First: AIRRSFAHVFCLCCIMEFPTFILGLGSLYPSLRSNVFFALSFFATRIVLHLML
Second: AISKLGQIMLYILKCLGLLKVVRKDDQGRIVECNNLTLINLVLTYTGPLPERN
The “transcriptional activation domain activity” value of the first is higher: 65700 for the first, 46000 for the second.

Going from “AITRLSLVIDALKEGMRYDCDHVLETYQYDVLLVAGYFYLAAILDKSGVDPTA” to “AIYSNIMGFLGGVAWAMLVAHICQLFPNACAAAIVTRFFRIMYQWKWPQPVLL”, the “transcriptional activation domain activity” value rises from 52000 to 64900.

First: AKAAEAVVAPEADAEKAEEAVVEKPKSTKGRKRKADEEDAEEVAAEANGAEAA
Second: AKADGKRGRTGTGARRGKGKKVTREARGRRKVKRRRGARAGKGSAGRERERGE
The “transcriptional activation domain activity” value of the first is lower: 28200 for the first, 34800 for the second.

Compared with “AKAEAEIKTEAEVKAEAEAPADEEAQTAGGKKKKAKNKKKKKAAAAAAAAAEA”, “AKAEAKTTKTAKKPTLEKKATTSKATTAKKPAAKPATKAKETKAAKEPKAKAA” is higher in “transcriptional activation domain activity” value: 36300 for the first, 40800 for the second.

Going from “AKANGAAKAAAVKPKDDSSDSSDSDSESDEEKAPAKAKEAKKAEVCTCCLSTV” to “AKDEGEEEEDGSTSLNGTGKGTGTGKTHRGARGSKKGKKDGNETTSKAKGDGV”, the “transcriptional activation domain activity” value rises from 17500 to 29500.

First: AKDGEEEKEKPKRGRKRKEAPAAEGEAEGEAADDAEPPAKKTKPASKAAPASK
Second: AKDGELQTKKPRQRKPKAPAATGDADILEVKPKRTRTTRPKVSSYFAEPAAPL
The “transcriptional activation domain activity” value of the first is higher: 23100 for the first, less than 6570 for the second.

Compared with “AKEDEGEKGKNKDKSKKEEEKKEEGEKKEEGEVKGVKEVEELKVEQPKEEVKL”, “AKEEKKEEKKEEAKAAEEVKPEETPAVEETKAEEAKVDEAKTEETPAVAAAAA” is lower in “transcriptional activation domain activity” value: 17700 for the first, 15700 for the second.

Compared with “AKEERKAKKKAEKEKAAVAGDAMEVDDSADKKEKKEKKRKRRESEAAGAVKVE”, “AKGAKKAKGAKKAKGAKKAAAGGAAAKAGAAAKAAKKAAKAKAAAAGGAAAAA” is higher in “transcriptional activation domain activity” value: 13300 for the first, 26000 for the second.

Going from “AKGEAEPKAKAKGKGKAKAQAESEGEEEEEEEEEEEVKGKGKSRAKSKPKAKA” to “AKILRELFLLYQPPEELIPSLQQWYLLVQACSGIVTSSDFGNTLFGIARLCLP”, the “transcriptional activation domain activity” value falls from 53900 to 30500.

Going from “AKKADAPAPAAPAKANKRKKAEESEAESEEEPAPAVKKPKVEQPKAAPKAAKA” to “AKKAKQEATTEGGEEGSTGKTAKAKETPPTEQKEGGEKKAKATKARGKAGKEA”, the “transcriptional activation domain activity” value rises from 26700 to 27300.

“AKKESKADGEEKPKAARGKKRKVDEEAEEEEGAEKPASKKAKPVSKAKSAAGS” was tested, and the “transcriptional activation domain activity” value was 17000.
